This is an account of results in patent US20250289866A1 (published 2025).

The target in this test is T1, NDC80 (NDC80 CT antigen; peptide NDC80-330) peptide on HLA-A*02:01 (human).
T1 peptide: GLNEEIARV
Description: multimer staining.

B1: NDC80-330 specific TCR (TCR, V domains shown)
Valpha: EDQVTQSPEALRLQEGESSSLNCSYTVSGLRGLFWYRQDPGKGPEFLFTLYSAGEEKEKERLKATLTKKESFLHITAPKPEDSATYLCAVQAGSSASKIIFGSGTRLSIRP
Vbeta: DAGVTQSPTHLIKTRGQQVTLRCSPKSGHDTVSWYQQALGQGPQFIFQYYEEEERQRGNFPDRFSGHQFPNYSSELNVNALLLGDSALYLCASSLSGGIYEQYFGPGTRLTVT
As for B1, the binding result is “recognises”.
